According to patent US7838231 (REGENTS OF THE UNIVERSITY OF MICHIGAN, dated 2010):

Legend:
[1] = molecular target: T1, NPHP4, human full length, yeast two-hybrid prey (human, UniProt O75161 1-1426); assay: direct yeast two-hybrid assay
T1 construct: also called nephroretinin; nephrocystin-4
T1 sequence: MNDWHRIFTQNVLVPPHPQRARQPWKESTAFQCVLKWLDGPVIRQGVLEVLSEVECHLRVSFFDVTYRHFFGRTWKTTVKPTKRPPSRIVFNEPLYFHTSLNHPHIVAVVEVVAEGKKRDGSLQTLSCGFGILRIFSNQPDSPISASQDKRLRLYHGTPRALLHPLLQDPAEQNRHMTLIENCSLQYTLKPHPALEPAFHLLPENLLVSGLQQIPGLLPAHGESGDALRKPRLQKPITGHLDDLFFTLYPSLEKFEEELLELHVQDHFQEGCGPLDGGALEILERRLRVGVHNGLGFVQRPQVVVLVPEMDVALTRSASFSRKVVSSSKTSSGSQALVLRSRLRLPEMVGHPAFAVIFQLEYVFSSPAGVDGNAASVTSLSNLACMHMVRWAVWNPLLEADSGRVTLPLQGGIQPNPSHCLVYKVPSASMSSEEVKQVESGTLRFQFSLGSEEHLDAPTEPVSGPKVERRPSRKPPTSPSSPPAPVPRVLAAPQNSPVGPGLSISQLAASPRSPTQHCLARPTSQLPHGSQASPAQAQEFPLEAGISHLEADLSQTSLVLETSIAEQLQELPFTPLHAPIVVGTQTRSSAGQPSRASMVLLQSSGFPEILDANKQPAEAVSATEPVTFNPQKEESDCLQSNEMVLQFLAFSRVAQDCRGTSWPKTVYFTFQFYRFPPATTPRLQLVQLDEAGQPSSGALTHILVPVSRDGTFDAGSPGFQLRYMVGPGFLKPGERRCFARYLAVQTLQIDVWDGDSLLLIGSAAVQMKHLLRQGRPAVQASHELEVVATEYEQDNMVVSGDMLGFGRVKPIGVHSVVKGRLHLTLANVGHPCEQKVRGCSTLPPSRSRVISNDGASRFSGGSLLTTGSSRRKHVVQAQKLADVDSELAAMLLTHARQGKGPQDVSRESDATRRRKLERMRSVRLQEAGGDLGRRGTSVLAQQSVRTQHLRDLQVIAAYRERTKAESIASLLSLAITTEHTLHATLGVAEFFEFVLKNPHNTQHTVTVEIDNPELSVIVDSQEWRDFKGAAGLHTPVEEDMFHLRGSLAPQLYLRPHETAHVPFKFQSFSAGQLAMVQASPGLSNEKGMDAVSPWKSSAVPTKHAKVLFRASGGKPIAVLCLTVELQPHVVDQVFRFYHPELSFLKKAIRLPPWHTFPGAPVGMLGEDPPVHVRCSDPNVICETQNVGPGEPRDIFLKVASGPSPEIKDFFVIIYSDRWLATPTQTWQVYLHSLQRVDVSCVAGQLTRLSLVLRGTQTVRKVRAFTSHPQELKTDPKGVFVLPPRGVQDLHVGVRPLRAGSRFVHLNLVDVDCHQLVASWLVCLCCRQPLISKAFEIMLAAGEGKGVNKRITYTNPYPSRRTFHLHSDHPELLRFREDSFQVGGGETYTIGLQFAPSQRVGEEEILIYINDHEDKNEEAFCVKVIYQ

[2] = molecular target: T2, KIF3A, yeast two-hybrid construct (UniProt Q9Y496 1-699); assay: direct yeast two-hybrid assay
T2 construct: The construct is not described in the methods; not shown: GAL4 domain of the two-hybrid vector; not described for this construct

[3] = molecular target: T3, RPGR (non-ORF15 containing isoform), human full length, yeast two-hybrid prey (human, UniProt Q92834-2 1-815); assay: direct yeast two-hybrid assay
T3 construct: also called non-ORF15 containing RPGR isoform
T3 sequence (looked up): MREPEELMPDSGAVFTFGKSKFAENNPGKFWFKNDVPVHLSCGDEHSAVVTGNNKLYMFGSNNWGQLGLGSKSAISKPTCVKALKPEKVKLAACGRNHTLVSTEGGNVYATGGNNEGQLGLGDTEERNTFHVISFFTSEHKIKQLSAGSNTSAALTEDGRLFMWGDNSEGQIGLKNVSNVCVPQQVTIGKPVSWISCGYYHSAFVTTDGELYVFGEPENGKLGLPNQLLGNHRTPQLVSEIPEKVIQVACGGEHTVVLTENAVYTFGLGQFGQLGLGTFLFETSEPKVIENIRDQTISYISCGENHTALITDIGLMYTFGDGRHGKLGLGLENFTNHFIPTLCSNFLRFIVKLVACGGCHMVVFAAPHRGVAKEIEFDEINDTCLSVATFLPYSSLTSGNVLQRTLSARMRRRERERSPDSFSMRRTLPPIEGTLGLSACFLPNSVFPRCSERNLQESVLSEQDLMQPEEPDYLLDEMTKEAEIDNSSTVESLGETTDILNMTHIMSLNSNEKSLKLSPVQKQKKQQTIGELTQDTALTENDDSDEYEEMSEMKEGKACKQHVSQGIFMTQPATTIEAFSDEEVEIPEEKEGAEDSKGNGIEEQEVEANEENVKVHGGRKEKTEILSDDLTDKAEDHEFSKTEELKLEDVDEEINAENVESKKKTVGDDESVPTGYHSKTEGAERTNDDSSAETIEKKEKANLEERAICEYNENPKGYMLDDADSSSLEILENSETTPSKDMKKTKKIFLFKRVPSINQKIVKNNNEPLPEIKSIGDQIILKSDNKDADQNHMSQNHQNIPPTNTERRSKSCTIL

[4] = molecular target: calmodulin (CALM2), human full length, yeast two-hybrid fusion (human, UniProt P0DP24 1-149); assay: yeast two-hybrid screen of a human fetal brain expression library, NPHP5 as bait

T2 sequence (Q9Y496 whole entry, the tested form may be a part): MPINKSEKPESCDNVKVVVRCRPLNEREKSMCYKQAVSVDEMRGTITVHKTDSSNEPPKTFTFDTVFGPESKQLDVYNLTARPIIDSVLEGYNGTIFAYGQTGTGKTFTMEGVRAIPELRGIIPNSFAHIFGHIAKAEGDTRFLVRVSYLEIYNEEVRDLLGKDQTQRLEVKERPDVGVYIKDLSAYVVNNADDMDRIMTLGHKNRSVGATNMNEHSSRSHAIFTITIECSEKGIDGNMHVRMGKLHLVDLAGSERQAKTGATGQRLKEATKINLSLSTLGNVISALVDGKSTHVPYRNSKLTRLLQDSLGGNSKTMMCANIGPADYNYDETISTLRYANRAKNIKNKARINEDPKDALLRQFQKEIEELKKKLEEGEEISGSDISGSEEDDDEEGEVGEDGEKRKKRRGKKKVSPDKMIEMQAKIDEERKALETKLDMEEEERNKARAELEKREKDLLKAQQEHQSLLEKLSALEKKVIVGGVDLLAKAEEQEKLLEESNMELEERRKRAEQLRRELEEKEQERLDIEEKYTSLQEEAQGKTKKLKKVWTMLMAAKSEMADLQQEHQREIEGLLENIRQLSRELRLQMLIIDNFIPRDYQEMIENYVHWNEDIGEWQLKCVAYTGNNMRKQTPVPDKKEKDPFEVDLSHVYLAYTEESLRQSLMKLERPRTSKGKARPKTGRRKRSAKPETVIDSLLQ

binding result [1]: no binding | binding result [2]: no binding | binding result [3]: no binding | binding result [4]: binds
B1: full-length human nephrocystin-5 (NPHP5), yeast two-hybrid fusion (other, not shown: small tags and cut ends)
chain: MKPTGTDPRILSIAAEVAKSPEQNVPVILLKLKEIINITPLGSSELKKIKQDIYCYDLIQYCLLVLSQDYSRIQGGWTTISQLTQILSHCCVGLEPGEDAEEFYNELLPSAAENFLVLGRQLQTCFINAAKAEEKDELLHFFQIVTDSLFWLLGGHVELIQNVLQSDHFLHLLQADNVQIGSAVMMMLQNILQINSGDLLRIGRKALYSILDEVIFKLFSTPSPVIRSTATKLLLLMAESHQEILILLRQSTCYKGLRRLLSKQETGTEFSQELRQLVGLLSPMVYQEVEEQKLHQAACLIQAYWKGFQTRKRLKKLPSAVIALQRSFRSKRSKMLLEINRQKEEEDLKLQLQLQRQRAMRLSRELQLSMLEIVHPGQVEKHYREMEEKSALNIQKHWRGYRERKNFHQQRQSLIEYKAAVTLQRAALKFLAKCRKKKKLFAPWRGLQELTDARRVELKKRVDDYVRRHLGSPMSDVVSRELHAQAQERLQHYFMGRALEERAQQHREALIAQISTNVEQLMKAPSLKEAEGKEPELFLSRSRPVAAKAKQAHLTTLKHIQAPWWKKLGEESGDEIDVPKDELSIELENLFIGGTKPP
notes: Full-length NPHP5 cDNA (598 amino acid residues) fused to a GAL4 domain; also called KIAA0036
